In patent US20240239878A1:

How the values were obtained:
[1] = molecular target: human DLL3 on SHP-77 cells (human) (UniProt Q9NYJ7); assay: flow cytometry, SHP-77 cells
[2] = molecular target: Cynomolgus monkey DLL3 on HEK293 cells (HEK293-cyno DLL3) (Cynomolgus monkey); assay: flow cytometry, HEK293-cyno DLL3 cells
Chain of Cynomolgus monkey DLL3 on HEK293 cells (HEK293-cyno DLL3) (Cynomolgus monkey) (Q9NYJ7 other isoform, or with tags, fused parts or gaps): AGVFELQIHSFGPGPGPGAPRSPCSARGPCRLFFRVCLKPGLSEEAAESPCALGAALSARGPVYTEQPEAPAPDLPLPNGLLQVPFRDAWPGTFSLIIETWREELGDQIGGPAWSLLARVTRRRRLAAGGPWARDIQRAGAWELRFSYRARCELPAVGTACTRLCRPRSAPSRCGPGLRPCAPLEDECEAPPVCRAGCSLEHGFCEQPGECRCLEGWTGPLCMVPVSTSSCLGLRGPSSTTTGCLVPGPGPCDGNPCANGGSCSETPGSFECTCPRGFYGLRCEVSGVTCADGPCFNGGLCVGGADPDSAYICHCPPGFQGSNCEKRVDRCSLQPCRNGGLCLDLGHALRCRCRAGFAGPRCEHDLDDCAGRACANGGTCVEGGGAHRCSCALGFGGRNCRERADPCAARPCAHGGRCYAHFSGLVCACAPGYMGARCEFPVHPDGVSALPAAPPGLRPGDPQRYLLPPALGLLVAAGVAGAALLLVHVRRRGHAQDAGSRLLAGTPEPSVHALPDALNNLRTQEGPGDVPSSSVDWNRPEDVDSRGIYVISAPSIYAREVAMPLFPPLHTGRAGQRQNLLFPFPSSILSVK

Chain of human DLL3 on SHP-77 cells (human) (Q9NYJ7 27-618): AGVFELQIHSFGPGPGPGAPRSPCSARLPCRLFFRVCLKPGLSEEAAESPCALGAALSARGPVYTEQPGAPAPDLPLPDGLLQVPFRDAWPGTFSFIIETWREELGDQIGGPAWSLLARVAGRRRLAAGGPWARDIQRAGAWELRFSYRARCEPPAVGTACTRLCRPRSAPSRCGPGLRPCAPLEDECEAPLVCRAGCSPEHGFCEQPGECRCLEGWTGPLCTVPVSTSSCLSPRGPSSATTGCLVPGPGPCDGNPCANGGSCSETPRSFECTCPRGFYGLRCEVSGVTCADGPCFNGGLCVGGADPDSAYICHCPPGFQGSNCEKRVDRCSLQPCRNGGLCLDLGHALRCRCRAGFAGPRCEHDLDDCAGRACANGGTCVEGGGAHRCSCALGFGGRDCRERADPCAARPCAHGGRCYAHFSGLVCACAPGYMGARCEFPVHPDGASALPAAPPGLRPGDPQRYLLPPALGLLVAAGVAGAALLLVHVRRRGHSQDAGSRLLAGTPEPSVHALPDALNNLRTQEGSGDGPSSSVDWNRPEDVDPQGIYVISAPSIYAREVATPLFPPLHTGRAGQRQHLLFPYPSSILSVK

- Top MFI [1]: 92 MFI
- Top MFI [2]: 104 MFI
Substance: Negative control antibody
